Assay results reported in patent publication US20090010942A1, “NOVEL PRIMATE CHITINASES AND USES THEREFOR” (WYETH, priority 2007, published 2009).
Several values for one entry are separate records, joined by “and”; a condition that tells them apart may be missing. Equal values may be shown once.

Experiments:
mNC = assay: methylallosamidin inhibition of mNC, chitobiose-4MU substrate; assay type: biochemical, cynomolgus monkey
Description: (§1) Analysis of hAMCase and mNC inhibition by methylallosamidin was performed by incubating various concentrations of methylallosamidin with 2 nM mNC or 2 nM hAMCase for 10 minutes prior to the addition of 5 μM chitobiose-4MU substrate. Maximal activity was determined by the initial rate of the enzyme activity without the inhibitor methylallosamidin. The percentage of enzyme activity was then calculated and plotted for each concentration of methylallosamidin compared to maximal activity. For the data shown in FIGS. 15C and 15D, the maximal initial rate (RFU/sec) is 1.1 for hAMCase and 21.0 for mNC. […] Conversely, 10 times more methylallosaminidin was required to inhibit mNC than hAMCase.

hAMCase = target: T1, hAMCase (Homo sapiens, UniProt Q9BZP6); assay: methylallosamidin inhibition of hAMCase, chitobiose-4MU substrate; assay type: biochemical; conditions: 2 nM hAMCase, 5 μM chitobiose-4MU
T1 construct: 6-histidine tag (C); made in house
Description: as §1

[1] = chitinase enzyme assay in conditioned media of transfected COS cells; assay type: biochemical
Description: Enzymatic activity assays were performed using cloned mNC, engineered hNC (stop codon substituted to allow for translation of full protein), engineered mut-hNC (truncated), and cloned hAMCase in COS cells. The full length mNC construct was expressed and the chitinase activity of the resultant gene products was measured.
Cultured conditions were as follows: COS cells were cultured in DME media and were transfected at 90% confluency using TransIT®-LT1 transfection reagent (MIRUS). 24 hours post transfection, cell culture media was replaced with serum-free R1CD1 media. Conditioned media, containing secreted enzyme, was collected 48 hours later. Chitinase enzyme assays were performed directly from these samples, as follows.

[2] = apparent Km of purified chitinases with increasing chitobiose-4MU; assay type: biochemical; conditions: for Km: purified 6-histidine tagged enzyme
Description: hAMCase, engineered with a C-terminal 6-histidine tag, was purified to a single band on SDS-PAGE from a stable CHO cell line transfected with cDNA encoding this hAMCase construct by nickel chromatography. Similarly, mNC, engineered with a C-terminal 6-histidine tag, was purified to a single band on an SDS-PAGE from COS cells transfected with cDNA encoding this mNC construct by nickel chromatography. The enzymatic activity of recombinant hAMCase to mNC was compared, as follows.

[3] = relative specific activity of purified chitinases; assay type: biochemical; conditions: 5 μM chitobiose-4MU, 0.1 M citrate phosphate
Description: As shown in FIGS. 15A-15D, further characterization of the purified mNC was performed by measuring the relative specific activity, pH profiling, and inhibition by an art-recognized chitinase inhibitor, methylallosamidin. Briefly, various concentrations of mNC, ranging from 0.156 nM to 5 nM, or hAMCase, ranging from 1.56 nM to 50 nM, were incubated with 5 μM chitobiose-4MU substrate in 0.1 M citrate phosphate, 0.0005% Brij35 buffer. The relative specific activity of each enzyme was then determined by measuring the initial rate of enzyme activity versus the enzyme concentration.

[4] = pH profile of purified chitinases; assay type: biochemical; conditions: for activity at lower pH values: pH 2.0 and 3.5; for pH of maximal activity: pH 2 to pH 8, 5 μM chitobiose-4MU; for slope of the initial rate at the various enzyme concentrations at maximal activity: pH 5.0, 5 μM chitobiose-4MU
Description: Analysis of the pH profiles of hAMCase and mNC were performed by incubating various concentrations of purified hAMCase (ranging from 0.05 nM to 50 nM) or mNC (ranging from 0.018 nM to 5 nM) with 5 μM chitobiose-4MU substrate in 0.1 M citrate phosphate buffer containing 0.005% Brij35 prepared at pH 2 to pH 8. The slope of the initial enzyme rate for each of the enzyme concentrations was then compared at each pH. […] The slope of the initial rate at the various enzyme concentrations measured for this maximal activity was 13.1 for mNC and 0.45 for hAMCase. This maximal value was set to 100% for each enzyme and the relative activity, for comparison of the activity at different pH values.

[5] = chitinase kcat and Km determination, hydrolysis of chitobiose-4MU; assay type: biochemical; conditions: for chitobioside-4MU substrate concentration showing substrate inhibition / apparent transglycosylation: hAMCase 1 nM, mNC 0.25 nM
Description: Km and Kcat values for hAMCase and mNC. To better understand the mechanism for the increased specific activity of mNC compared to hAMCase, we measured the km and kcat for each enzyme. The progress curves of hAMCase (1 nM) hydrolysis reactions for 4MU product formation were linear during the first 10 min. for chitobioside-4MU substrate concentrations between 0 to 75 μM (data not shown). The rate of product formation was slower at the highest substrate concentration tested, 150 μM, compared to 75 μM, reflecting substrate inhibition due to transglycosylation, consistent with a previous report (Chou et al. (2006) Biochemistry 45, 4444-4454). We confirmed the high substrate concentration was not due to inner filter effect. In separate control experiments, the 4MU fluorescent signal was not quenched by chitobiose-4MU up to 600 μM.
The initial rates within the first 10 min. of hAMCase (1 nM) or mNC (0.25 nM) were plotted against the concentration of chitobiose-4MU that were in the linear range for both enzymes. […] The same Km and Kcat values for each enzyme were obtained from Line-weaver Burke plots of the linear curves.

[6] = chitin RBV assay (chitin hydrolysis); assay type: biochemical; conditions: 37° C., 24 hours
Description: Chitin RBV assay. Carboxymethyl-substituted chitin labeled covalently with Remazol Brilliant Violet (CM-Chitin-RBV) (Loewe Biochemica, Sauerlach, Germany) was used to measure chitinolytic activity (Wirth S J, Wolf G A, (1992) Soil Biol Biochem v24 p511-519). A solution of 2 mg/ml CM-chitin-RBV (50 μL) was added to hAMCase (AMCase) or mNC (cyno chitintase) in a total volume of 200 μL of buffer (0.2 M citrate phosphate buffer pH 5.0) in 96-well v-bottom plates (Costar Cat. No. 3894 Acton, Mass.). The plates were sealed with low evaporation lids and incubated at 37° C. for 24 hours. The reaction was terminated by the addition of 1 N HCl, causing precipitation of the non-degraded high-polymeric substrate. The plates were cooled on ice for 10 min. and centrifuged (1400 g, 10 min). The supernatants (100 μL) were transferred to 96-well plates (Costar cat. No. 3690) and measured at […] (Molecular devices).
Chitin hydrolysis. We employed the chitin RBV assay, a soluble, dye-labelled and acid-precipitable assay for endo-chitinases to determine if mNC and hAMCase hydrolyze chitin (Wirth S J, Wolf G A (1992) Soil Biol Biochem 24, 511-519). […] The released amount of soluble chitin oligomers was dose-dependent on enzyme concentration (FIG. 16).

[7] = Table 1, pH 5.0 citrate phosphate buffer
[8] = Table 1, pH 5.0 citrate phosphate buffer, read-out: Km
[9] = text, Michaelis-Menten fit, hAMCase 1 nM or mNC 0.25 nM, read-out: Km app

T1 sequence (Q9BZP6 22-476 N45D/D47N/R61M/I339V/F354S/V432G): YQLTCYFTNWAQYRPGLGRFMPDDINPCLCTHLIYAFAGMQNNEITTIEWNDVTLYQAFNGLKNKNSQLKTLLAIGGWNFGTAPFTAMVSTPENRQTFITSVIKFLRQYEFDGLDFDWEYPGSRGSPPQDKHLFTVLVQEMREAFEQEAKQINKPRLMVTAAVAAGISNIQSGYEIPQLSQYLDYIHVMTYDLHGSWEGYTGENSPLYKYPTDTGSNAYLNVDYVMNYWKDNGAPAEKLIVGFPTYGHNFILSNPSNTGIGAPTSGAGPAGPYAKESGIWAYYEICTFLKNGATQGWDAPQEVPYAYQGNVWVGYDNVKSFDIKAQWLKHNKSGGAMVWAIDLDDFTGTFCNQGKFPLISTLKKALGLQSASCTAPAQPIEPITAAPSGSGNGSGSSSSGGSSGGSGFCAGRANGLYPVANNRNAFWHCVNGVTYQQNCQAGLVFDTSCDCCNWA

Row | chitobioside-4MU substrate concentration showing substrate inhibition / apparent transglycosylation [5] | Compound | inhibition of mNC with increasing concentrations of methylallosamidin (mNC; 2 nM mNC, 5 μM chitobiose-4MU) | IC50 (mNC; 2 nM mNC, 10 minutes preincubation, 5 μM chitobiose-4MU) | amount of inhibitor required to inhibit mNC relative to hAMCase (mNC; mNC versus hAMCase) | inhibition of hAMCase with increasing concentrations of methylallosamidin (hAMCase) | IC50 (hAMCase; 10 minutes preincubation) | enzymatic (chitinase) activity [1] | lower apparent Km for chitobiose-4MU compared to hAMCase ([2]; mNC versus hAMCase) | Km [2] | relative specific activity [3] | activity at lower pH values [4] | pH of maximal activity [4] | slope of the initial rate at the various enzyme concentrations at maximal activity [4] | kcat [5, 7] | Km [5, 8] | kcat ([5]; summary text b32) | kcat ([5]; text b472, unit not given) | Km [5, 9] | chitin hydrolysis [6] | Km ([5]; text, Michaelis-Menten fit, hAMCase 1 nM or mNC 0.25 nM, listed as AMCase, read-out: Km app)
1 |  | COC[C@H]1O[C@@H](O[C@H]2[C@@H](O)[C@@H](NC(C)=O)[C@H](OC3C(O)C4N=C(N(C)C)OC4C3CO)O[C@@H]2CO)[C@H](NC(C)=O)[C@H](O)[C@@H]1O (some centres unmarked) [methylallosamidin] | dose-dependent inhibition | 58 nM | 10 times | dose-dependent inhibition | 5.5 nM |  |  |  |  |  |  |  |  |  |  |  |  |  | 
2 | ≥ 37 µM | mNC: macaque novel chitinase cloned from cynomolgus monkey, SEQ ID NO:2 |  |  |  |  |  | significant enzymatic activity | 10 fold | 2 µM | 14.4 units/sec/nM | lower activity, but retain significant activity | 5.0 | 13.1 | 31.8 ± 3.2 s − 1 | 6 ± 1 µM | about 32 s^−1 | 31.8+/−3.2 | ~6 µM and 6 µM | generated soluble chitin oligomers | 
3 | 150 µM | hAMCase: human Acidic Mammalian Chitinase, SEQ ID NO:29 |  |  |  |  |  |  |  | 20 µM | 0.4 units/sec/nM | lower activity, but retain significant activity | 5.0 | 0.45 | 3.0 ± .35 s − 1 | 42 ± 6 µM | about 3 s^−1 | 3.0+/−0.35 | ~42 µM | generated soluble chitin oligomers | 42 µM
